The assay concerns the target endogenous knock-in V5-Halo-RXRα (human (endogenous in U2OS)) (UniProt P19793).
Chain of UniProt P19793 (P19793 whole entry): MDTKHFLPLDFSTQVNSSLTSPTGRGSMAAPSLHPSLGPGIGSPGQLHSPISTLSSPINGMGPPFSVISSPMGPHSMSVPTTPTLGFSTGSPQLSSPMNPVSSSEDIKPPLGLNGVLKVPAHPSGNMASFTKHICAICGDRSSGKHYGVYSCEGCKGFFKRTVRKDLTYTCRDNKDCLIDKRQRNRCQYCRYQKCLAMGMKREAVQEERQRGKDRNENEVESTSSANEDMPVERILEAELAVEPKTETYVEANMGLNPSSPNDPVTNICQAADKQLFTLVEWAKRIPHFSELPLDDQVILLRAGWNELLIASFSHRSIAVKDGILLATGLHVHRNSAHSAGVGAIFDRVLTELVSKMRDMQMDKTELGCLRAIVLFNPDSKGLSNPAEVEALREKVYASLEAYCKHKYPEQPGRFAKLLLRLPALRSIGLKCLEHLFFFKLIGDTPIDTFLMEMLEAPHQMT

Regarding “RARα^RR-SNAPf-3xFLAG (from UniProt P10276 1-462) (natural protein)”, the chromatin-bound fraction of DR trajectories (f bound,DR) of RARα^RR-SNAP in Halo-RXRα knock-in U2OS cells is 7.5% and the chromatin-bound fraction of PAPA trajectories (f bound,PAPA) of RARα^RR-SNAP in Halo-RXRα knock-in U2OS cells is 11.1%.

The values above are taken from PMC11723585.
